# Measurements taken from publication PMC8897395 (Nature Communications, 2022).
# B1: MARV nucleoprotein (1–395), wild type (domain or fragment)
# chain: MDLHSLLELGTKPTAPHVRNKKVILFDTNHQVSICNQIIDAINSGIDLGDLLEGGLLTLCVEHYYNSDKDKFNTSPVAKYLRDAGYEFDVIKNADATRFLDVSPNEPHYSPLILALKTLESTESQRGRIGLFLSFCSLFLPKLVVGDRASIEKALRQVTVHQEQGIVTYPNHWLTTGHMKVIFGILRSSFILKFVLIHQGVNLVTGHDAYDSIISNSVGQTRFSGLLIVKTVLEFILQKTDSGVTLHPLVRTSKVKNEVASFKQALSNLARHGEYAPFARVLNLSGINNLEHGLYPQLSAIALGVATAHGSTLAGVNVGEQYQQLREAAHDAEVKLQRRHEHQEIQAIAEDDEERKILEQFHLQKTEITHSQTLAVLSQKREKLARLAAEIENNI
# Molecular target: the molecule itself
# Assay: […], in Tris-HCl buffer (10 mM Tris-HCl pH 8.0, 150 mM NaCl, 1 mM EDTA); […]
protein,measurement,value
B1,binding result,binds
